Assay results from the DeepSol protein solubility set.

test: soluble on expression in E. coli; label from the status in PepcDB or PDB records

| Sequence | soluble on expression in E. coli |
| --- | --- |
| MQLDPGRGYDLIGDVHGCAHTLDRLLDLLGYRLQGGVWRHPRRQALFLGDIVDRGPRIREALHRVHAMVDAGEALCIMGNHEFNALGWSTPAAPGSGRQYVREHTPRHARLIKETLEQFEGHDADWRDFLGWFQQLPLFLDAGRFRMVHACWDGELIATLRRQFPDGRISEAFLQESAEPGSFADLACNRLLRGTDMRLPHGATLTSSDGYTRAFFRTKFWVEDEAPRTYGDIVFQPDALPEAIAREPLSEEQKSSLLTYGADEPLLFVGHYWRRGTPAPIRPNLACLDYSAVMYGKLAAYRLDEETRLDRHKFVWVEVKRPEADE | soluble |
| MQLSHRPAETGDLETVAGFPQDRDELFYCYPKAIWPFSVAQLAAAIAERRGSTVAVHDGQVLGFANFYQWQHGDFCALGNMMVAPAARGLGVARYLIGVMENLAREQYKARLMKISCFNANAAGLLLYTQLGYQPRAIAERHDPDGRRVALIQMDKPLEP | soluble |
| MSETLDQWRAGLTLGFAPGHAGRTVLRERAHYGPMLVQRALYPEGPQVCHVAILHPPSGIAGGDALEIRVDVAGGARAALTTPGATRWYKSNGRQASQDVHLRVAAGGRLDWLPLESIFFEEADALARNRIQLESGAAAIGWDLIQLGRVNQSGHWSQGRLHTATELYVDGRLLWVDQGLVGAQDDVRRQVSGLAGFPVHAALWSFGPRLDAEQNEELAGLMPWSDTLRGAATTMPYDATQSLCLVRCLGVHMEDVRAVMTDAWAYLRPRVLDTPAVVPRLWATKLAAALEHHHHHH | not soluble |
| MGSSHHHHHHSSGLVPRGSHMGLQDYQRLHKESIEDPAKFFGSKATQFLNWSKPFDKVFIPDPKTGRPSFQNNAWFLNGQLNACYNCVDRHALKTPNKKAIIFEGDEPGQGYSITYKELLEEVCQVAQVLTYSMGVRKGDTVAVYMPMVPEAIITLLAISRIGAIHSVVFAGFSSNSLRDRINDGDSKVVITTDESNRGGKVIETKRIVDDALRETPGVRHVLVYRKTNNPSVAFHAPRDLDWATEKKKYKTYYPCTPVDSEDPLFLLYTSGSTGAPKGVQHSTAGYLLGALLTMRYTFDTHQEDVFFTAGDIGWITGHTYVVYGPLLYGCATLVFEGTPAYPNYSRYWDIIDEHKVTQFYVAPTALRLLKRAGDSYIENHSLKSLRCLGSVGEPIAAEVWEWYSEKIGKNEIPIVDTYWQTESGSHLVTPLAGGVTPMKPGSASFPFFGIDAVVLDPNTGEELNTSHAEGVLAVKAAWPSFARTIWKNHDRYLDTYLNPYPGYYFTGDGAAKDKDGYIWILGRVDDVVNVSGHRLSTAEIEAAIIEDPIVAECAVVGFNDDLTGQAVAAFVVLKNKSSWSTATDDELQDIKKHLVFTVRKDIGPFAAPKLIILVDDLPKTRSGKIMRRILRKILAGESDQLGDVSTLSNPGIVRHLIDSVKL | soluble |
| MSDPRAPRLCVLIDADNVPANYAEAIFEEIAALGEASVRRIYGDWSAMRLNAWAKKVAALGLVADQQFSNTKGKNASDIGLVISAMDFLHSGLFDGFVLVSSDSDFTRLAARIREQGLDVYGIGEKKTPEAFRMACKRFIYVENLGSDEPPAREPRPADEPQQPPAQRGREKEEPMKAIPLIAAAMRAIDPEGEWYSLGQIGQFITQANPDFDTRTYGSAKLSDLIKKISRFEVKPGPGGQLLARDIALEHHHHHH | not soluble |
| MSLKTVEEQAKNIYQLLEMVYGTSPWTLEQVLIDIRRDQTDYFLLYDHDKLLGFLAIQDLAGEVEMTQIAILPSHQELGLASQLMTHLDSIESDIFLEVRESNHRAQGLYQKFGFKFIGKRPDYYRNPIETALLMKREGKHDREGHHHHHH | soluble |
| MQIVSVDIGSTWTKAALFTREGDALTLVNHVLTPTTTHHLAKGFFSSLNQVLNVDNALPLLNSGEVALKYSSSAKGGLAVAAMGLVPSITLETAKVTAHSAGAKIAQYYAYKLNRRDIQALEETQPDILLFTGGTDGGEESYGLNNARVLAESKLDCAIIYAGNRDIQDEVQEILGHKDLTIVDNVLPDLDHPNPVAARQAICDIFLKRIVKGKGLDVIVDKTGEEPMPTPWTVFELVKAISNVDHSWKEFMLIDMGGATTDVYSACANTLSPDTVLHGVPEPFVKRTVEGDLGMRVSAVVVGESAKELVNVNFAQQPAQLDAFYHYLRHLVAHPDYLPANAEEKYFDTVLAGLCVGYATERHAGTKKEVCTCVGNVDLQMGRDLTTVRKVVGSGGWLSRASQFDMHHWLKYRELNDDGKRILLPTEFEYYRDSRGLLPLLANVARVDPLAAARTSIQCLTL | not soluble |
